For this experiment, the target named is FLAG-PICK1 (rat) (UniProt Q9EP80). Briefly: pull-down.
Chain of UniProt Q9EP80 (Q9EP80 whole entry): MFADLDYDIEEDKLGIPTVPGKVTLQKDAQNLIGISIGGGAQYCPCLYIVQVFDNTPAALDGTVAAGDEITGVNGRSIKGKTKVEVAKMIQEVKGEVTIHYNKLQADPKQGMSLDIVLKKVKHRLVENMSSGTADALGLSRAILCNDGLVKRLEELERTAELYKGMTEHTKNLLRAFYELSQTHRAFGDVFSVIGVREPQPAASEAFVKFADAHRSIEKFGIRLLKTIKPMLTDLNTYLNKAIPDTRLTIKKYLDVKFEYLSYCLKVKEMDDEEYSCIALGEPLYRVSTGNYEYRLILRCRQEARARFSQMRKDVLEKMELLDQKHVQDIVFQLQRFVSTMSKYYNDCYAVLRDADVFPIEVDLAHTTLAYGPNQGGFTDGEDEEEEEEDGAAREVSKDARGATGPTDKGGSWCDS

For the substance “pep2-EVKI, point mutant of the C-terminal 11 amino acids of GluR2 (from UniProt P19491 873-883) (peptide)”, the percent of PICK1 retained by GST-ct-GluR5 (2b) with the peptide came out at 8%.

The record behind these values is publication PMC3314502.
